# Measured values from US20070111253A1 (MERCK, published 2007).
# B1: rhDkk-1 comprising a polyhistidine sequence at the carboxy terminus, labeled with europium chelate N1-isothiocyanate (Eu-rhDkk-1) (ligand, not shown: small tags and cut ends)
# chain: TLNSVLNSNAIKNLPPPLGGAAGHPGSAVSAAPGILYPGGNKYQTIDNYQPYPCAEDEECGTDEYCASPTRGGDAGVQICLACRKRRKRCMRHAMCCPGNYCKNGICVSSDQNNFRGEIEETITESFGNDHSTLDGYSRRTTLSSKMYHSKGQEGSVCLRSSDCATGLCCARHFWSKICKPVLKEGQVCTKHRRKGSHGLEIFQRCYCGEGLSCRIQKDHHQASNSSRLHTCQRH
# modifications: labeled with europium chelate N1-isothiocyanate, about 9 Eu molecules per protein (sites not given)
# notes: Produced in baculovirus-infected insect cells and purified on a nickel column; also called labeled RhDkk-1 protein; polyhistidine-tagged RhDkk-1
# B2: rhesus monkey dickkopf-1 (rhDkk-1), unlabeled competitor (ligand)
# chain: B1 chain
# Key:
# [1] = target: T1, human low-density lipoprotein receptor related protein 5 (LRP5) (human, UniProt O75197 32-1615); assay: cell binding to HEK 293 cells stably overexpressing human LRP5, time resolved fluorescence of europium label
# T1 construct: whole, on cells; also called human LRP5
# [2] = target: T1, human low-density lipoprotein receptor …; assay: competition with rhDkk-1-GFP fusion protein for binding to LRP5 on HEK 293 cells, fluorescence imaging (INCell 3000)
# Description: The rhDkk-1-GFP fusion protein-LRP5 binding assays were as follows. Recombinant HEK-293 cells stably overexpressing human LRP5 were plated into the wells of a 384-well tissue culture plate (Corning) at a concentration of about 6,000 cells/well. Each well contained 45 μL of phenol red-free DMEM containing 2.5% FBS. To each well, an analyte was added to give a final concentration of 15 μM. A minute later, 5 μL of conditioned medium containing rhDkk-1-GFP and 10 μM DRAQ5 nuclear stain is added to each well and the wells incubated at 37 °C for 25 minutes. Imaging and evaluation of rhDkk-1-GFP fusion protein binding to the recombinant cells overexpressing LRP5 was determined using an INCell 3000 imager (Amersham, Piscataway, N.J.).
# [3] = target: T1, human low-density lipoprotein receptor …; assay: competition with Eu-rhDkk-1 for binding to human LRP5 on HEK 293 cells, time resolved fluorescence
# Description: The rhDkk-1-LRP5 binding assays were carried out as follows. The recombinant HEK 293 cells stably overexpressing human LRP5 were plated into the wells of white/white, 384-well, PDL plates (BD Biosciences, San Jose, Calif.). Each well contained about 10,000 cells and 30 μL of medium containing 2.5% FBS. The next day, to each well, 250 nL of an analyte was added (high concentration copy, CyBi Disk) for final a concentration of about 30 μM. Next, 5 μL of Eu-rhDkk-1 (1 nM) was added to each of the wells (CyBi Well, 0.1 nM final concentration). After incubating at 37° C. for 30 minutes, the wells were washed four times each with a wash solution (Tris-buffered saline, pH 8.0) containing 0.02% Tween-20). After the final wash, 20 μL of Enhancement Solution (Perkin Elmer) was added to each of the wells. After incubating the wells in Enhancement Solution for 30 minutes at room temperature, the wells were vortexed and the time resolved fluorescence from the wells read using the […], a CCD-based optical imaging instrument that can measure fluorescence (Amersham Biosciences, Piscataway, N.J.).
# T1 sequence (O75197 32-1615): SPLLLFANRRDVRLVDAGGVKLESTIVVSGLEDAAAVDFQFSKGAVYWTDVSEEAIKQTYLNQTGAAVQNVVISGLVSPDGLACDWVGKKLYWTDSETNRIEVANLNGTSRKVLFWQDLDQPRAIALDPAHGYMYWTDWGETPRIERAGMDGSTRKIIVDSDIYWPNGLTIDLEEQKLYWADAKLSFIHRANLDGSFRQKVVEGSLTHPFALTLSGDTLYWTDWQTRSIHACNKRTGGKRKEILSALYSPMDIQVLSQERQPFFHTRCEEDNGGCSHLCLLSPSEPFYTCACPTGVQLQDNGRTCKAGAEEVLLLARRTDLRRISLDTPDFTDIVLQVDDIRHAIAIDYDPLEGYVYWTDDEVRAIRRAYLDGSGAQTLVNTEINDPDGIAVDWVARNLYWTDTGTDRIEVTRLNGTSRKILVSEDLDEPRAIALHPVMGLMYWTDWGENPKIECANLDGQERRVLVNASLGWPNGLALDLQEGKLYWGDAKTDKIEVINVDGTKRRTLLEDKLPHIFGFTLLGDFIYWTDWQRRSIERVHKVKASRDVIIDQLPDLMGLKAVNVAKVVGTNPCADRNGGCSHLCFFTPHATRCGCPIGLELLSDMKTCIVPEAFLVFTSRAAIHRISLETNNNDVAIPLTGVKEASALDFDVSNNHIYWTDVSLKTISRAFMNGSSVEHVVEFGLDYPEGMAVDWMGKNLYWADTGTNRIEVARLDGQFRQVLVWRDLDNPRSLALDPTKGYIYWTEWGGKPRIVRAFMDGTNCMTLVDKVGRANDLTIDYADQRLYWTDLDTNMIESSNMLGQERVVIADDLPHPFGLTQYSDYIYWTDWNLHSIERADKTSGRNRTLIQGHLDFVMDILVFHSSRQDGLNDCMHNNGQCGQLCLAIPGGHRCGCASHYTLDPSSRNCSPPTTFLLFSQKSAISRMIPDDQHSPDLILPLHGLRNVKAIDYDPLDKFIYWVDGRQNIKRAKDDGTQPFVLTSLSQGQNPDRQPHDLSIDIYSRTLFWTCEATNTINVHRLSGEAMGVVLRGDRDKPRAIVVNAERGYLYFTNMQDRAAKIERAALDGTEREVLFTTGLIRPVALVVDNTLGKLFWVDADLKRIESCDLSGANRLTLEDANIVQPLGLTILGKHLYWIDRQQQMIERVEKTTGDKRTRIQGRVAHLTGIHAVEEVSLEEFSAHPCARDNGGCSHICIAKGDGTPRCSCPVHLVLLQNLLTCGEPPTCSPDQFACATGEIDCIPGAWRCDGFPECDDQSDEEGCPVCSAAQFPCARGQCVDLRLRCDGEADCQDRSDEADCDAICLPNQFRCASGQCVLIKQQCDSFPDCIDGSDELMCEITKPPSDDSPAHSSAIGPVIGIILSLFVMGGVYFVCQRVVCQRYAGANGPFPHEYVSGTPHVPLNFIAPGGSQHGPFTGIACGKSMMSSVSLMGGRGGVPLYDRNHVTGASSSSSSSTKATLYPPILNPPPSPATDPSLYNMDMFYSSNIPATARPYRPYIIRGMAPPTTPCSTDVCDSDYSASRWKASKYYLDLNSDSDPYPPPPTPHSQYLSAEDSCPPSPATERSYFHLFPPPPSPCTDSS
Binder,Kd [1] [nM],IC50 [2] [nM],IC50 [3] [nM]
B1,~1,–,–
B2,–,~1,~0.2
